Data published in publication PMC8175722.
Values belong to the molecule of their own block, whether it stands above or below them.

Tests used:
[1] = target: mannosylated surface IgM (sIgM-Mann) of the FL-derived cell line WSU-FSCCL (human (endogenous in WSU-FSCCL)) (UniProt P01871)
[2] = target: DC-SIGN-HA (DC-SIGN fused to the HA epitope tag) (UniProt Q9NNX6); assay: SEC; analytical gel filtration of recombinant DC-SIGN-Fc and DC-SIGN-HA; data not shown; the high Stokes radius prevented a more accurate measurement of molecular mass
[3] = target: mannosylated surface IgM (sIgM-Mann) of the FL-derived cell line WSU-FSCCL (human (endogenous in WSU-FSCCL)) (UniProt P01871); remark: listed apart in the source
[4] = target: T1, DC-SIGN-Fc (recombinant DC-SIGN fused to Fc), Q9NNX6; assay: SEC; analytical gel filtration of recombinant DC-SIGN-Fc and DC-SIGN-HA; data not shown; the high Stokes radius prevented a more accurate measurement of molecular mass; conditions: remark: other sources report otherwise
T1 chain: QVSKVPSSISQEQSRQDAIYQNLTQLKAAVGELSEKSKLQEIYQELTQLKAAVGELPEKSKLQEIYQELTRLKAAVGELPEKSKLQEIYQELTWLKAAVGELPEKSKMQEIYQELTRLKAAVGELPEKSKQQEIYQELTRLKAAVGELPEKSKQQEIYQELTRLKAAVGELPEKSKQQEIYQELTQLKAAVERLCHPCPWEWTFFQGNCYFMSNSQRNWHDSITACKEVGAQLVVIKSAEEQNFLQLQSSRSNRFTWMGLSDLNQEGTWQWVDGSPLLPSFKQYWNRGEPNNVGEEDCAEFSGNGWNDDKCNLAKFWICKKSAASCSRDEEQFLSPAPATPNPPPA

Sequence of UniProt P01871 (P01871 whole entry, looked up, the tested form may be a part): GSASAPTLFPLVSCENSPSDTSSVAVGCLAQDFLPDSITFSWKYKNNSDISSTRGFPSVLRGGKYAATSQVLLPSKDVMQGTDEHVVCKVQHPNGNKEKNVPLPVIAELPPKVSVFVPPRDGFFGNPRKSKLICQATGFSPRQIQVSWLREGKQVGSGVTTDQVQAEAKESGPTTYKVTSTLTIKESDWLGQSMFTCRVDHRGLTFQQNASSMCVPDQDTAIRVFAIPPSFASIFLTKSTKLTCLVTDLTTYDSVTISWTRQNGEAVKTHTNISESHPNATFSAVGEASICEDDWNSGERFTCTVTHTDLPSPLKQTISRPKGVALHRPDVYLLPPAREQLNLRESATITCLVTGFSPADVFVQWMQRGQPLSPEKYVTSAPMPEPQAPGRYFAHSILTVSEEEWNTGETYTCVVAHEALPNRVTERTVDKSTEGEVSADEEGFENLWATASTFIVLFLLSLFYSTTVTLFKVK

inhibition of the anti-IgM-induced iCa2+ flux in WSU-FSCCL cells after pre-exposure to DC-SIGN-HA [1]: 50%
stoichiometry N [2]: > 4
Molecule: DC-SIGN-HA (DC-SIGN fused to the HA epitope tag) (from UniProt Q9NNX6 1-404) (natural protein)

inhibition of the anti-IgM-induced iCa2+ flux in WSU-FSCCL cells after pre-exposure to DC-SIGN-Fc [1]: 80%
recovery of the anti-IgM-induced iCa2+ response in WSU-FSCCL cells after removal of pre-bound DC-SIGN-Fc with mannan (15 or 30 min at 37 °C) [3]: 50%
Molecule: DC-SIGN-Fc (recombinant DC-SIGN fused to Fc) (from UniProt Q9NNX6 59-404) (Fc fusion)

stoichiometry N [4]: > 4
B1: DC-SIGN-Fc (recombinant DC-SIGN fused to Fc), Q9NNX6 59-404 (Fc fusion)
chain: T1 chain
